Reference: US20190041402A1 (GOVERNING COUNCIL OF THE UNIVERSITY OF TORONTO, published 2019)

Assays:
[1] = biological target: T1, mouse αKlotho (mouse, UniProt O35082 35-982); experiment: SPR (ProteOn XPR36), Fab captured by anti-IgG(H+L), mouse αKlotho injected in serial dilutions, Langmuir fit [continued) C.]
T1 construct: also called Mu aKL
T1 sequence (looked up): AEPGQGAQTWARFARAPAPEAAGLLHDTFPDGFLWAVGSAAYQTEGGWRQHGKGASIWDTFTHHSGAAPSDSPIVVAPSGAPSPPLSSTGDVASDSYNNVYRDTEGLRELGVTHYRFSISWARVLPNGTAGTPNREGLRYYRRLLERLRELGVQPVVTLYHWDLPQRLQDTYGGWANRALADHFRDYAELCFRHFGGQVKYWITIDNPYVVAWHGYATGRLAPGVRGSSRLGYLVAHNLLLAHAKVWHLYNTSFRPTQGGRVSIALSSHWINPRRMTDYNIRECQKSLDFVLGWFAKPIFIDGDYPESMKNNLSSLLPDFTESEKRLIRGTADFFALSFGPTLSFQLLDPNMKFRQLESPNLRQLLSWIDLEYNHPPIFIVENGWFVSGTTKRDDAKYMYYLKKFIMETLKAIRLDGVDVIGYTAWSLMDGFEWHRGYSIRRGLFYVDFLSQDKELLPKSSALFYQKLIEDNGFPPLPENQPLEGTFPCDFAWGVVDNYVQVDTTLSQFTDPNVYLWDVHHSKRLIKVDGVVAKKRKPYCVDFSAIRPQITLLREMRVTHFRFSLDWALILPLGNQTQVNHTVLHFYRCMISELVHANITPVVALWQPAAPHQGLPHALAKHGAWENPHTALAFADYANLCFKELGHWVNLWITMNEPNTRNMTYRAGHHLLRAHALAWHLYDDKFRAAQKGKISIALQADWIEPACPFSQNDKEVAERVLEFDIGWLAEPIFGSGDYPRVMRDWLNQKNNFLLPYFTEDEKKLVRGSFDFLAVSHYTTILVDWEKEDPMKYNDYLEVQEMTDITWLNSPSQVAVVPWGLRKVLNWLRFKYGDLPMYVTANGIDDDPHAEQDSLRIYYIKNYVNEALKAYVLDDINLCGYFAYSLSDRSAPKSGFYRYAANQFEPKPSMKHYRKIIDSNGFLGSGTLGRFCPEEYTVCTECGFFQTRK
Protocol: Estimated affinities against human and mouse antigen for select αKlotho Fabs were obtained by surface plasmon resonance on a ProteOn XPR36 (FIG. 17). Fabs were captured using an anti-IgG(H+L) antibody and serial dilutions of αKlotho were injected. Binding curves were fitted to the Langmuir model. (A) Determined Kon, Koff and KD values. (B) and (C) Binding curves for human and mouse antigen respectively.

[2] = biological target: T2, neutravidin (UniProt P02701 25-152); experiment: Fab ELISA, Fab 5 ug/ml on immobilised antigen, anti-Flag-HRP, A450
T2 construct: also called NA; NAV
Protocol: (§1) Fab ELISA using both human and mouse αKlotho was carried out for assessing cross-reactivity to human and mouse αKlotho (FIG. 16). Fabs (5 ug/ml) were incubated with immobilized αKlotho human, mouse, or neutravidin (NA) and SBA as negative controls. After washing off unbound Fab, bound Fab were detected using an HRP-conjugated anti-Flag antibody (Fabs have Falg tag on the end of their light chains). Colorimetric HRP reagents allow for absorbance readings at 450 nm.

[3] = biological target: T3, bovine serum albumin (bovine, UniProt P02769 25-607); experiment: as above
T3 construct: also called BSA
Protocol: as §1

[4] = biological target: T4, extracellular domain (ECD) of human αKlotho, amino acids E34-S981 with C-terminal 6-His tag (R&D Systems … (human, UniProt Q9UEF7 34-981)); experiment: SPR, Fab captured by anti-H+L antibody, αKlotho injected
T4 construct: range 34-981; also called αKlotho (aa34-981); target antigen
T4 sequence: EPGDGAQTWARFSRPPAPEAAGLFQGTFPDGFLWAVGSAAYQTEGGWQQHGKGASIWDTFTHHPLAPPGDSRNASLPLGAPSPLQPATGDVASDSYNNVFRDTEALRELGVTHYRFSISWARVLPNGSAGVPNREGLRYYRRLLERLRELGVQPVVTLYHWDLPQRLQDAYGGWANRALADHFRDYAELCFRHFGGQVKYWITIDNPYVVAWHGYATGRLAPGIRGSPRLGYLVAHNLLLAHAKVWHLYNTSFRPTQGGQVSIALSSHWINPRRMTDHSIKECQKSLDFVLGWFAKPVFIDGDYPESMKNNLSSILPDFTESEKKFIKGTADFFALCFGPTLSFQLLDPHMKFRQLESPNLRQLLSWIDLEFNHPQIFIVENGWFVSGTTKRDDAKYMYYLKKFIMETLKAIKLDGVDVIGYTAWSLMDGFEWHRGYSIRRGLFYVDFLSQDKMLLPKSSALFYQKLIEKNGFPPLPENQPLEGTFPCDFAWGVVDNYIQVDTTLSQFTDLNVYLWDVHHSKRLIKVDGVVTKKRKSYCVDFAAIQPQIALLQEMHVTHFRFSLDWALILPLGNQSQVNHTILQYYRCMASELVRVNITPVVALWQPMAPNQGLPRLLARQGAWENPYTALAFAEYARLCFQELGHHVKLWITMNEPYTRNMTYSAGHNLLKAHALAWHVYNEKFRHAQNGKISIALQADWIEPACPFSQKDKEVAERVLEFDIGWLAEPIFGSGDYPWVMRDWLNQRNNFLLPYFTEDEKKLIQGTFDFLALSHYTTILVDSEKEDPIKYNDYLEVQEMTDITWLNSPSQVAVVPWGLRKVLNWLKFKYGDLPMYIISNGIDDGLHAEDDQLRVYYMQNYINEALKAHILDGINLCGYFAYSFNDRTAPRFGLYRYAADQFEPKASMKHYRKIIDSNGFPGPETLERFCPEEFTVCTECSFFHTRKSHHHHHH
Protocol: Affinity estimates for each of the antibodies were determined by surface plasmon resonance (SPR). Fabs were immobilized using an anti-H+L antibody and serial dilutions of αKlotho were injected.

T2 sequence (P02701 25-152): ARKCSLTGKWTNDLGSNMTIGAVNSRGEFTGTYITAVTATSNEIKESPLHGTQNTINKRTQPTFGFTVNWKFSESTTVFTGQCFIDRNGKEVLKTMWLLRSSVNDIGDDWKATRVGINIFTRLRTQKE
T3 sequence (P02769 25-607 limits assumed): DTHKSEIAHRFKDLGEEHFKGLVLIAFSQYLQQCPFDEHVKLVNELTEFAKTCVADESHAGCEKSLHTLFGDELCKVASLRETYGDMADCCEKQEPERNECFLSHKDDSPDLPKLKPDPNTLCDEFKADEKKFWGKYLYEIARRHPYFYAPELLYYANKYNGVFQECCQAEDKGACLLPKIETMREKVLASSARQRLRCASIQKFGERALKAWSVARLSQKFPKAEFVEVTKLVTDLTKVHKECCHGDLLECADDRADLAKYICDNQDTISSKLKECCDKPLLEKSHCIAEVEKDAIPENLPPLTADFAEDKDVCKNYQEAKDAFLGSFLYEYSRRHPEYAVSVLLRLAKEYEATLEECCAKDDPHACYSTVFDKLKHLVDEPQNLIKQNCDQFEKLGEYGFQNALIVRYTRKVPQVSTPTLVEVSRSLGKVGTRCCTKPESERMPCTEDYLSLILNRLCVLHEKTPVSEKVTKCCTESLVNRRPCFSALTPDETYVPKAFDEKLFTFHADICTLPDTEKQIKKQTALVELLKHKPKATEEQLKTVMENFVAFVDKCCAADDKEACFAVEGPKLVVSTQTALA

B1: sb106 Fab (Fab, V domains shown)
VH: EVQLVESGGGLVQPGGSLRLSCAASGFNISYYSIHWVRQAPGKGLEWVAYISPSYGYTSYADSVKGRFTISADTSKNTAYLQMNSLRAEDTAVYYCARYYVYASHGWAGYGMDYWGQGTLVTVSS
VL: DIQMTQSPSSLSASVGDRVTITCRASQSVSSAVAWYQQKPGKAPKLLIYSASSLYSGVPSRFSGSRSGTDFTLTISSLQPEDFATYYCQQAGYSPITFGQGTKVEIKR
notes: also called Fsb106; clone 48
**Q.** With B1 as the binder, how does the Kd [1] read?
**A.** Its Kd is 0.784 nM.

**Q.** And the koff [1]?
**A.** Its koff is 0.000159 s⁻¹.

**Q.** And the kon [1]?
**A.** The kon was 202000 M⁻¹ s⁻¹.

**Q.** Does B1 bind [2]?
**A.** Result: no binding (tested: 5 ug/ml)

**Q.** Does B1 bind [3]?
**A.** Result: no binding (tested: 5 ug/ml)

**Q.** What about the Kd [4] of the same binder?
**A.** Its Kd is 1.9 nM.
